Data published in a protein production outcome set (Wang et al. 2014).

Test: label from the status in PepcDB records
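Further: failed if final PepcDB status was selected cloned or expressed and not failed if soluble or beyond.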

Row | Sequence | protein production
1 | STSPTATKYDVFLSFRGVDTRRNFISFLYKEFVRRKIRTFKDDKELENGRRISPELKRAIEESKFAVVVVSVNYAASPWCLDELVKIMDFENKGSITVMPIFYGVDPCHLRRQIGDVAEQFKKHEAREEDHEKVASWRRALTSLASISGDCSSKCEDEAKLVDEIADKISKNLMTVTTISNGKNLVGIDTHMKALNKKLDLNSNKSLRVVGIWARGYNGRSALAKYVYQDICHHFDSHCFLGSVKRISQGRHLSHLHEEFLIRIQGSKHNLKDQKVLLVADDVYKLEQLDALAEDFNGFGPGSVVIITTQDKHLFVSAGIKLVYEVELLKFQKVCELFRQFAFKKRDISAAVKLVYYRATNWLGCLSGRSG | failed
2 | STVKRKPVFVKVEQLKPGTTGHTLTVKVIEANIVVPVTRKTRPASSLSRPSQPSRIVECLIGDETGCILFTARNDQVDLMKPGATVILRNSRIDMFKGTMRLGVDKWGRIEATGAASFTVKEDNNLSLVEYE | not failed
3 | SVDKNRTLHELSSKNFSRTPNGLIFTNDLKTVYSIFLICLDLKEKKHSSDTKSFLLTAFTKHFHFTFTYQEAIKAMGQLELKVDMNTTCINVSYNIKPSLARHLLTLFMSSKLLHTPQDRTRGEPKEKVLFQPTPKGVAVLQKYVRDIGLKTMPDILLSSFNSMKLFTFERSSVTDSIIHSDYLIHILFIKMMGAKPNVWSPTNADDPLPCLSSLLEYTNNDDTFTFEKSKPEQGWQAQIGNIDINDLERVSPLAHRFFTNPDSESHTQYYVSNAGIRLFENKTFGTSKKIVIKYTFTTKAIWQWIMDCTDIMHVKEAVSLAALFLKTGLIVPVLLQPSRTDKKKFQISRSSFFTLSKRGWDLVSWTGCKSNNIRAPNGSTIDLDFTLRGHMTVRDEKKTLDDSEGFSQDMLISSSNLNKLDYVLTDPGMRYLFRRHLEKELCVENLDVFIEIKRFLKKMTILKKLIDSKHCDKKSNTSTSKNNIVKTIDSALMKQANECLEMAYHIYSSYIMIGSPYQLNIHHNLRQNISDIMLHPHSPLSEHFPTNLYDPSPASAESAASSISSTEADTLGEPPEVSLKPSKNLSNENCSFKKQGFKHQLKEYKPAPLTLAETHSPNASVENSHTIVRYGMDNTQNDTKSVESFPATLKVLRKLYPLFEIVSNEMYRLMNNDSFQKFTQSDVYKDASALIEIQEKC | failed
4 | SVMAEGTAVLRRNRPGTKAQDFYNWPDESFDEMDSTLAVQQYIQQNIRADCSNIDKILEPPEGQDEGVWKYEHLRQFCLELNGLAVKLQSECHPDTCTQMTATEQWIFLCAAHKTPKECPAIDYTRHTLDGAACLLNSNKYFPSRVSIKESSVAKLGSVCRRIYRIFSHAYFHHRQIFDEYENETFLCHRFTKFVMKYNLMSKDNLIVPILEEEVQNSVSGESEA | failed
5 | SVTIDHTTENAAPAQAPVSDRAWALFRALDGKGLVPDGYVEGWKKTFEEDFSPRRGAELVARAWTPRRGAELVARAWTDPEFRQLLLTDGTAAVAQYGYLGPQGEYIVAVEDTPTLKNVIVCSLCSCTAWPILGLPPTWYKSFEYRARVVREPRKVLSEMGTEIASDIEIRVYDTTAETRYMVLPQRPAGTEGWSQEQLQEIVTKDCLIGVAIPQVPTV | not failed
6 | SYETSQHNLDAVEAVLSRLQKQTGEMAAYMVPVGYRALCVSQRESMQALRCSFVQGQSQPLLRGASSKVMLAYMPAARCEKILRYFGEDPTLDKWQSEFEKIRRHGYAVSTSEIDPGVSGISAPVMKGSKLIGAISVMAPAHRVESNKQRIILHVLQAARALPPER | not failed
7 | TARKCLLEKVEVITGEEAESNVLQMQCKLFVFDKTSQSWVERGRGLLRLNDMASTDDGTLQSRLVMRTQGSLRLILNTKLWAQMQIDKASEKSIHITAMDTEDQGVKVFLISASSKDTGQLYAALHHRILALRSRVE | not failed
8 | TATNHQGLPAVDSEILEMPPEKADGVVEGIDVNGPKAQLMLRYPDGKREQITLPEQAKLLALVKHVQSKGYPNERFELLTNFPRRKLSHLDYDITLQEAGLCPQETVFVQE | not failed
9 | TDAFVFEGFLPTRGKRRLEKLANLKGEQRVVIFYEAPGRLQAALADMREVLGDRHVVVARELTKIHEEFVRGRVSFVAEHFAAVDVKGEVVILVAPAPAP | failed
10 | TDINSLRTRLRSGEHAFADTLAFIADGYDYQPQPFRNGDVDNAAGQNEGSCKTLGLALLEGLSDEEALLAFGEHYRSVQATPEGSDHGNIRALIKHGLAGVTFEGEPLKRK | not failed
11 | TDPDADRLGVEIRQPDGSYKNLSGNQIGAIIAKYILEAHKTAGTLPENAALAKSIVSTELVTKIAESYGATMFNVLTGFKFIAEKIQEFEEKHNHTYMFGFEESFGYLIKPFVRDKDAIQAVLLVAEIAAYYRSRGLTLADGIDEIYKEYGYFAE | failed
12 | TDQAITFDDVLLVPSYNHHESRRVVETTSTDRLGKLTLNLPVISANMDTITESNMANFMHSKGAMGALHRFMTIEENIQEFKKCKGPVFVSVGCTENELQRAEALRDAGADFFCVDVAHAHAKYVGKTLKSLRQLLGSRCIMAGNVATYAGADYLASCGADIIKAGIGGGSVCSTRIKTGFGVPMLTCIQDCSRADRSIVADGGIKTSGDIVKALAFGADFVMIGGMLAGSAPTPGEVFQKDDGSKVKRYRGMASREAQEAFLGQMHEWKTAEGVATEVPFKENPDGIIADIIGGLRSGLTYAGADSISELQRKLNYVIVTQAGRIESLPHKLLEG | not failed
13 | TEDSLMPEEEFLRRNKGPVSIKVQVPNMQDKTEWKLNGQGLVFTLPLTDQVSVIKVKIHEATGMPAGKQKLQYEGIFIKDSNSLAYYNMASGAVIHLALKER | not failed
14 | TEDTVIKVSVLRGPSVIAFADWLENPPIIDNKKVQVKVVDSPDLAQALLIKQETDIAVLPMINAANLYNKGIKIKLAGCPIWGTLYLVEKTPLKEPALYVFGNGTTPDILTRYYLGRQRLDYPLNYAFNTAGEITQGILAGKVNRAVLGEPFLSIALRKDSSLRITADLNHLTDNDTLGFAQTAVVYTPTMEKYRIAFEDALRASCQKAVRYPKETIHSLEEHGIFAQGALTPKSIERCKIYYLSAIEAKDAVMGFLRLIEQYEPKAVGGRLPDAGFIPEKQ | not failed
15 | TFDNLNSMNGKGSSTDGINYVFDSLMSSSLDEPGVMYPLLAKTATFDPEQTHFVIFELNPKARFSDGTPVTAQDVKFSFDTYQSKANPGLQMYISDLAKTEVLSKYRVKFSFKSQNNAEMPLILASLPIYSQKDWKNRDFTRVTLQPILGSGPYLIERIDPS | failed
16 | TFSYLAETDYPVFTLGGSTADAARRLAASGCACAPVLDGERYLGMVHLSRLLEGRKGWPTVKEKLGEELLETVRSYRPGEQLFDNLISVAAAKCSVVPLADEDGRYEGVVSRKRILGFLAERI | failed
17 | TGALMASSPQDIKFQDLVVFILEKKMGTTRRALLMELARRKGFRVENELSDSVTHIVAENNSGSDVLEWLQAQKVQVSSQPELLDVSWLIECIGAGKPVEMTGKHQL | not failed

Row | Sequence | protein production
18 | TGELEVVQQAVKEMNDPSQPNEEGITALHNAICGANYSIVDFLITAGANVNSPDSHGWTPLHCAASCNDTVICMALVQHGAAIFATTLSDGATAFEKCDPYREGYADCATYLADVEQSMGLMNSGAVYALWDYSAEFGDELSFREGESVTVLRRDGPEETDWWWAALHGQEGYVPRNYFGLFPRVKPQRSKV | failed
19 | TGNVCIEEIDVDGKFIRLKNTSEQDQPMGGWEMIRKIGDTSVSYKYTSRYVLKAGQTVTIWAANAGVTASPPTDLIWKNQNSWGTGEDVKVILKNSQGEEVAQRSTVFKTTIP | failed
20 | THGVVIIDVTKNENKVIYVNRAFERITGYGEQHALGKGLLTLLGSNLEEVNHKRIELAIRESKEETIEMESIKRNGEFYWCEISVAPVKDSF | failed
21 | TIEARTAQSTPSAPPQKVMCVSMGSTTVRVSWVPPPADSRNGVITQYSVAYEAVDGEDRGRHVVDGISREHSSWDLVGLEKWTEYRVWVRAHTDVGPGPESSPVLVRTDEDVPSGPPRKVE | not failed
22 | TIPEGLRAVVFDFDGTILDTETREFHHWQELYREHGRELALSDWQRGVGTWDAFDPWAGLPEQVQADRENVRARLHDTIVSDIAGQDLRPGVRAVLEGVKAAGLRLALATSSDREWVTRWMRQHNLLDLFEAVATRDDVRRVKPDPELYLLAAARLGLRPEECLAVEDSFNGATAAVAAGMRLVVVPNDVTRTQPFPAEWRRLEDGYAGGLAGLL | failed
23 | TISSGVPPELPGPPTNLGISNIGPRSVTLQFRPGYDGKTSISRWLVEAQVGVVGEGEEWLLIHQLSNEPDARSMEVPDLNPFTCYSFRMRQVNIVGTSPPSQPSRKIQTLQ | not failed
24 | TKGEKKQESFLLEYVSANPTGPLHIGHARGAVFGDTLTRLARHLGYKFNTEYYVNDAGNQIYLLGLSILLSVKESILHENVEYPEQYYKGEYIVDLAKEAFEKFGKEFFSEENIPSLADWAKDKMLVLIKQNLEQAKIKIDSYVSERSYYDALNATLESLKEHKGIYEQEGKIWLASSQKGDEKDRVIIREDGRGTYLAADIVYHKDKMSRGYGKCINIWGADHHGYIPRMKAAMEFLGFDSNNLEIILAQMVSLLKDGEPYKMSKRAGNFILMSDVVDEIGSDALRYIFLSKKCDTHLEFDISDLQKEDSSNPVYYINYAHARIHQVFAKAGKKID | failed
25 | TLIYGHRGAKGEAPENTLASFQRCLEHGVNRCELDLHLSRDGELMVIHDPTLKRTTGRRGKVAEHDAATLATYDARKGGPGWVRPTPIPRLEELFEKCPFEHWQLEVKSASRERAARTVTRIRELTERFGNRDKVTVTSGSRTVLKALNELTPELSRGLVAEYAWLDPLKVAQHYGCALLALNWTLCTPERLLKAQRQGLHVSVWTVNEPALMRRLADFGVDSLITDFPGLASATLGNR | failed
26 | TMLRVRSRDGLERVSVDGPHITVSQLKTLIQDQLQIPIHNQTLSTNRNLLLAKSPSDFLAFTDMADPNLRISSLNLAHGSMVYLAYEGERTIRG | not failed
27 | TNDEETIQQQILALSADKRNFLRDPPAGVQFNFDFDQMYPVALVMLQEDELLSKMRFALVPKLVKEEVFWRNYFYRVSLIKQSAQLT | not failed
28 | TNNGKQFIHNDTMEGGKLVCREIYAMNDAASGILNPVKMYKYSYDTDQQKTVKSTYAWNIFKNTWETESRTVISRYETETSVEYSVWNKEKGSFDLSKKYIYITDNNNQLIAQYAYKMNSRTNQWILEKDALTPIYENIYATTR | not failed
29 | TQIQNRTRRAKRALAARGLTEAVTWSFISKPFAEAFGGGQPELALANPIASDLSDMRPSLLPGLIAAAQANADRGSPDLALFEVGQVFKGDRPQDQFMAASGVRRGVASSAGLGRHWSGSAQATALDAKADAFAVLAAAGAPMAGLQIATNKLPAWLHPGRSGAIQIGPQNVLGYFGELHPRVLEQLGADGPLVAFEVILEKIP | not failed
30 | TQVADNEYLVQGRMLIDEFNEVFETDLHMSDVDTMAGYLITALGTIPDEGEKPSFEVGNIKLTAEEMEGTRLLVLRVHFYDEETVDEEPEENRRFFRKEMEDDEPRR | not failed
31 | TSTFYELFPKTFPKKLPIWTIDQSRLRKEYRQLQAQHHPDMAQQGSEQSSTLNQAYHTLKDPLRRSQYMLKLLRNI | failed
32 | TTESLYAFSRKLAGTAALDDVLWATAYQIALMLKVRVVLLLPEQGRIAVKAGYPPEDQLDPADLAAANWAWENDRVAGRGSDTLPGAKRLFLPMRTGRGPIGVIGIDDDRAGALLTPDQRRLLDALTDQGALAIERVHLVEDMDRVKR | failed
33 | TTHKFEHPLNEKTRIYLRVESLLRQAHLASGFADNHQYQLFFRALFDMVEIFEQIQLKSELAKDLEKQRLSYRHWLNVEGVDQEALNSLLNEIDVVHSQLMGAERFGQALKEDRFLSSIRQRFNLPGGSCCFDLPALHYWLHLPIERKKHDANQWQKSLKPLSDALTLWLKLARETGHFKAQIARAGFFQSDADEANILRLHIPMKYGVYPMISGHKNRFAIKFMAFENGQACSQDVEFELAVC | not failed
